Molecular target: the molecule itself
Assay: crystal structure; PleD 5 mg/mL with 0.5 µM c-di-GMP and 5 mM ppGpp or pppGpp; sitting-drop vapor diffusion at 19°C; space group P6(1)22, 4 molecules per asymmetric unit; 2.9 Å (ppGpp) and 3 Å (pppGpp)

B1: PleD diguanylate cyclase from Caulobacter crescentus (enzyme)
chain: MSARILVVDDIEANVRLLEAKLTAEYYEVSTAMDGPTALAMAARDLPDIILLDVMMPGMDGFTVCRKLKDDPTTRHIPVVLITALDGRGDRIQGLESGASDFLTKPIDDVMLFARVRSLTRFKLVIDELRQREASGRRMGVIAGAAARLDGLGGRVLIVDDNERQAQRVAAELGVEHRPVIESDPEKAKISAGGPVDLVIVNAAAKNFDGLRFTAALRSEERTRQLPVLAMVDPDDRGRMVKALEIGVNDILSRPIDPQELSARVKTQIQRKRYTDYLRNNLDHSLELAVTDQLTGLHNRRYMTGQLDSLVKRATLGGDPVSALLIDIDFFKKINDTFGHDIGDEVLREFALRLASNVRAIDLPCRYGGEEFVVIMPDTALADALRIAERIRMHVSGSPFTVAHGREMLNVTISIGVSATAGEGDTPEALLKRADEGVYQAKASGRNAVVGKAA
notes: PleD, response regulator and diguanylate cyclase of Caulobacter crescentus (receiver domain D1, adaptor domain D2, DGC domain); expressed from pET11b-pleD; In the crystals each monomer carries two c-di-GMP at the I-site, and one (p)ppGpp and a Mg2+ in the active site; also called PleDCC; source: E. coli BL21(DE3), purified (Ni-NTA, SEC)
B1: binds.

— doi:10.1101/2025.08.22.671821, “Cross-regulation of (p)ppGpp and c-di-GMP pathways controls a cell-cycle transition” (bioRxiv, 2025)
